Results on six molecules are retold here after patent US20210139548A1 (published 2021).

First the molecules themselves.
B1: Compound 173 (peptide)
peptide: Isovaleryl-APAK([AEEA-AEEA-γGlu-C18 diacid])PEEDASPEELQRYYVELRHYYNWLTRQRY-NH2
SMILES: CC(C)CC(=O)N[C@@H](C)C(=O)N1CCC[C@H]1C(=O)N[C@@H](C)C(=O)N[C@@H](CCCCNC(=O)COCCOCCNC(=O)COCCOCCNC(=O)CC[C@H](NC(=O)CCCCCCCCCCCCCCCCC(=O)O)C(=O)O)C(=O)N1CCC[C@H]1C(=O)N[C@@H](CCC(=O)O)C(=O)N[C@@H](CCC(=O)O)C(=O)N[C@@H](CC(=O)O)C(=O)N[C@@H](C)C(=O)N[C@@H](CO)C(=O)N1CCC[C@H]1C(=O)N[C@@H](CCC(=O)O)C(=O)N[C@@H](CCC(=O)O)C(=O)N[C@@H](CC(C)C)C(=O)N[C@@H](CCC(N)=O)C(=O)N[C@@H](CCCNC(=N)N)C(=O)N[C@@H](Cc1ccc(O)cc1)C(=O)N[C@@H](Cc1ccc(O)cc1)C(=O)N[C@H](C(=O)N[C@@H](CCC(=O)O)C(=O)N[C@@H](CC(C)C)C(=O)N[C@@H](CCCNC(=N)N)C(=O)N[C@@H](Cc1c[nH]cn1)C(=O)N[C@@H](Cc1ccc(O)cc1)C(=O)N[C@@H](Cc1ccc(O)cc1)C(=O)N[C@@H](CC(N)=O)C(=O)N[C@@H](Cc1c[nH]c2ccccc12)C(=O)N[C@@H](CC(C)C)C(=O)N[C@H](C(=O)N[C@@H](CCCNC(=N)N)C(=O)N[C@@H](CCC(N)=O)C(=O)N[C@@H](CCCNC(=N)N)C(=O)N[C@@H](Cc1ccc(O)cc1)C(N)=O)[C@@H](C)O)C(C)C
B2: Compound 178 (peptide)
peptide: Isovaleryl-APEK([AEEA-AEEA-γGlu-C18 diacid])PEEDATPEETERYYVSLRHYYNWLTRQRY-NH2
SMILES: CC(C)CC(=O)N[C@@H](C)C(=O)N1CCC[C@H]1C(=O)N[C@@H](CCC(=O)O)C(=O)N[C@@H](CCCCNC(=O)COCCOCCNC(=O)COCCOCCNC(=O)CC[C@H](NC(=O)CCCCCCCCCCCCCCCCC(=O)O)C(=O)O)C(=O)N1CCC[C@H]1C(=O)N[C@@H](CCC(=O)O)C(=O)N[C@@H](CCC(=O)O)C(=O)N[C@@H](CC(=O)O)C(=O)N[C@@H](C)C(=O)N[C@H](C(=O)N1CCC[C@H]1C(=O)N[C@@H](CCC(=O)O)C(=O)N[C@@H](CCC(=O)O)C(=O)N[C@H](C(=O)N[C@@H](CCC(=O)O)C(=O)N[C@@H](CCCNC(=N)N)C(=O)N[C@@H](Cc1ccc(O)cc1)C(=O)N[C@@H](Cc1ccc(O)cc1)C(=O)N[C@H](C(=O)N[C@@H](CO)C(=O)N[C@@H](CC(C)C)C(=O)N[C@@H](CCCNC(=N)N)C(=O)N[C@@H](Cc1c[nH]cn1)C(=O)N[C@@H](Cc1ccc(O)cc1)C(=O)N[C@@H](Cc1ccc(O)cc1)C(=O)N[C@@H](CC(N)=O)C(=O)N[C@@H](Cc1c[nH]c2ccccc12)C(=O)N[C@@H](CC(C)C)C(=O)N[C@H](C(=O)N[C@@H](CCCNC(=N)N)C(=O)N[C@@H](CCC(N)=O)C(=O)N[C@@H](CCCNC(=N)N)C(=O)N[C@@H](Cc1ccc(O)cc1)C(N)=O)[C@@H](C)O)C(C)C)[C@@H](C)O)[C@@H](C)O
B3: Compound 177 (peptide)
peptide: Isovaleryl-APEK([AEEA-AEEA-γGlu-C18 diacid])PEEDSSPEELQRYYVELRHYYNWLTRQRY-NH2
SMILES: CC(C)CC(=O)N[C@@H](C)C(=O)N1CCC[C@H]1C(=O)N[C@@H](CCC(=O)O)C(=O)N[C@@H](CCCCNC(=O)COCCOCCNC(=O)COCCOCCNC(=O)CC[C@H](NC(=O)CCCCCCCCCCCCCCCCC(=O)O)C(=O)O)C(=O)N1CCC[C@H]1C(=O)N[C@@H](CCC(=O)O)C(=O)N[C@@H](CCC(=O)O)C(=O)N[C@@H](CC(=O)O)C(=O)N[C@@H](CO)C(=O)N[C@@H](CO)C(=O)N1CCC[C@H]1C(=O)N[C@@H](CCC(=O)O)C(=O)N[C@@H](CCC(=O)O)C(=O)N[C@@H](CC(C)C)C(=O)N[C@@H](CCC(N)=O)C(=O)N[C@@H](CCCNC(=N)N)C(=O)N[C@@H](Cc1ccc(O)cc1)C(=O)N[C@@H](Cc1ccc(O)cc1)C(=O)N[C@H](C(=O)N[C@@H](CCC(=O)O)C(=O)N[C@@H](CC(C)C)C(=O)N[C@@H](CCCNC(=N)N)C(=O)N[C@@H](Cc1c[nH]cn1)C(=O)N[C@@H](Cc1ccc(O)cc1)C(=O)N[C@@H](Cc1ccc(O)cc1)C(=O)N[C@@H](CC(N)=O)C(=O)N[C@@H](Cc1c[nH]c2ccccc12)C(=O)N[C@@H](CC(C)C)C(=O)N[C@H](C(=O)N[C@@H](CCCNC(=N)N)C(=O)N[C@@H](CCC(N)=O)C(=O)N[C@@H](CCCNC(=N)N)C(=O)N[C@@H](Cc1ccc(O)cc1)C(N)=O)[C@@H](C)O)C(C)C
B4: Compound 179 (peptide)
peptide: Isovaleryl-APAK([AEEA-AEEA-γGlu-C18 diacid])PEEDASPAELQRYYVSLRHYYNWLTRQRY-NH2
SMILES: CC(C)CC(=O)N[C@@H](C)C(=O)N1CCC[C@H]1C(=O)N[C@@H](C)C(=O)N[C@@H](CCCCNC(=O)COCCOCCNC(=O)COCCOCCNC(=O)CC[C@H](NC(=O)CCCCCCCCCCCCCCCCC(=O)O)C(=O)O)C(=O)N1CCC[C@H]1C(=O)N[C@@H](CCC(=O)O)C(=O)N[C@@H](CCC(=O)O)C(=O)N[C@@H](CC(=O)O)C(=O)N[C@@H](C)C(=O)N[C@@H](CO)C(=O)N1CCC[C@H]1C(=O)N[C@@H](C)C(=O)N[C@@H](CCC(=O)O)C(=O)N[C@@H](CC(C)C)C(=O)N[C@@H](CCC(N)=O)C(=O)N[C@@H](CCCNC(=N)N)C(=O)N[C@@H](Cc1ccc(O)cc1)C(=O)N[C@@H](Cc1ccc(O)cc1)C(=O)N[C@H](C(=O)N[C@@H](CO)C(=O)N[C@@H](CC(C)C)C(=O)N[C@@H](CCCNC(=N)N)C(=O)N[C@@H](Cc1c[nH]cn1)C(=O)N[C@@H](Cc1ccc(O)cc1)C(=O)N[C@@H](Cc1ccc(O)cc1)C(=O)N[C@@H](CC(N)=O)C(=O)N[C@@H](Cc1c[nH]c2ccccc12)C(=O)N[C@@H](CC(C)C)C(=O)N[C@H](C(=O)N[C@@H](CCCNC(=N)N)C(=O)N[C@@H](CCC(N)=O)C(=O)N[C@@H](CCCNC(=N)N)C(=O)N[C@@H](Cc1ccc(O)cc1)C(N)=O)[C@@H](C)O)C(C)C
B5: Compound 174 (peptide)
peptide: Isovaleryl-APAK([AEEA-AEEA-γGlu-C18 diacid])PEEDAEPEELQRYYVSLRHYYNWLTRQRY-NH2
SMILES: CC(C)CC(=O)N[C@@H](C)C(=O)N1CCC[C@H]1C(=O)N[C@@H](C)C(=O)N[C@@H](CCCCNC(=O)COCCOCCNC(=O)COCCOCCNC(=O)CC[C@H](NC(=O)CCCCCCCCCCCCCCCCC(=O)O)C(=O)O)C(=O)N1CCC[C@H]1C(=O)N[C@@H](CCC(=O)O)C(=O)N[C@@H](CCC(=O)O)C(=O)N[C@@H](CC(=O)O)C(=O)N[C@@H](C)C(=O)N[C@@H](CCC(=O)O)C(=O)N1CCC[C@H]1C(=O)N[C@@H](CCC(=O)O)C(=O)N[C@@H](CCC(=O)O)C(=O)N[C@@H](CC(C)C)C(=O)N[C@@H](CCC(N)=O)C(=O)N[C@@H](CCCNC(=N)N)C(=O)N[C@@H](Cc1ccc(O)cc1)C(=O)N[C@@H](Cc1ccc(O)cc1)C(=O)N[C@H](C(=O)N[C@@H](CO)C(=O)N[C@@H](CC(C)C)C(=O)N[C@@H](CCCNC(=N)N)C(=O)N[C@@H](Cc1c[nH]cn1)C(=O)N[C@@H](Cc1ccc(O)cc1)C(=O)N[C@@H](Cc1ccc(O)cc1)C(=O)N[C@@H](CC(N)=O)C(=O)N[C@@H](Cc1c[nH]c2ccccc12)C(=O)N[C@@H](CC(C)C)C(=O)N[C@H](C(=O)N[C@@H](CCCNC(=N)N)C(=O)N[C@@H](CCC(N)=O)C(=O)N[C@@H](CCCNC(=N)N)C(=O)N[C@@H](Cc1ccc(O)cc1)C(N)=O)[C@@H](C)O)C(C)C
B6: Compound 176 (peptide)
peptide: Isovaleryl-APEK([AEEA-AEEA-γGlu-C18 diacid])PEEDASEEELQRYYVSLRHYYNWLTRQRY-NH2
SMILES: CC(C)CC(=O)N[C@@H](C)C(=O)N1CCC[C@H]1C(=O)N[C@@H](CCC(=O)O)C(=O)N[C@@H](CCCCNC(=O)COCCOCCNC(=O)COCCOCCNC(=O)CC[C@H](NC(=O)CCCCCCCCCCCCCCCCC(=O)O)C(=O)O)C(=O)N1CCC[C@H]1C(=O)N[C@@H](CCC(=O)O)C(=O)N[C@@H](CCC(=O)O)C(=O)N[C@@H](CC(=O)O)C(=O)N[C@@H](C)C(=O)N[C@@H](CO)C(=O)N[C@@H](CCC(=O)O)C(=O)N[C@@H](CCC(=O)O)C(=O)N[C@@H](CCC(=O)O)C(=O)N[C@@H](CC(C)C)C(=O)N[C@@H](CCC(N)=O)C(=O)N[C@@H](CCCNC(=N)N)C(=O)N[C@@H](Cc1ccc(O)cc1)C(=O)N[C@@H](Cc1ccc(O)cc1)C(=O)N[C@H](C(=O)N[C@@H](CO)C(=O)N[C@@H](CC(C)C)C(=O)N[C@@H](CCCNC(=N)N)C(=O)N[C@@H](Cc1c[nH]cn1)C(=O)N[C@@H](Cc1ccc(O)cc1)C(=O)N[C@@H](Cc1ccc(O)cc1)C(=O)N[C@@H](CC(N)=O)C(=O)N[C@@H](Cc1c[nH]c2ccccc12)C(=O)N[C@@H](CC(C)C)C(=O)N[C@H](C(=O)N[C@@H](CCCNC(=N)N)C(=O)N[C@@H](CCC(N)=O)C(=O)N[C@@H](CCCNC(=N)N)C(=O)N[C@@H](Cc1ccc(O)cc1)C(N)=O)[C@@H](C)O)C(C)C

*1 amine or outer side, *2 acyl side, *3 side chain or, on linkers, in order; H or OH if unused. Side-chain parts run from the residue outwards. The star is where a group is joined. C18 diacid = O=C(O)CCCCCCCCCCCCCCCCC(=O)*; γGlu = O=C(O)[C@H](CCC(=O)[*:2])N[*:1]; Isovaleryl = CC(C)CC(=O)*; AEEA = NCCOCCOCC(=O)O

The target of the test is T1, human neuropeptide Y2 receptor (human, UniProt P49146 1-381).
T1 construct: whole, on cells; also called hNPY2 receptor; hNPY2-R
T1 sequence (looked up): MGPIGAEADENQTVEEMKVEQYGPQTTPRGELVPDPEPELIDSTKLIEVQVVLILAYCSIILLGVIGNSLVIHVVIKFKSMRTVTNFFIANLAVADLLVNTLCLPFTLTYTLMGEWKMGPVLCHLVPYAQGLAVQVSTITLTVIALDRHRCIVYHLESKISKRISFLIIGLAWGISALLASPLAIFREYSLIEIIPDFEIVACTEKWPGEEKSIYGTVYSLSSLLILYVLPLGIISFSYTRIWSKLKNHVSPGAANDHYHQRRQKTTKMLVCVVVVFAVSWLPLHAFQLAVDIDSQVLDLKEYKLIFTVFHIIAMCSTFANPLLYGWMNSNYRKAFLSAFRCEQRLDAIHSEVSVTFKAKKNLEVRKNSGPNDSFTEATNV
The test is described as follows: radioligand competition (125I-PYY(1-36)), hNPY2R membranes. An outline of the steps:
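Commercial human Y2 receptor membranes (0.5 μg protein/well) were incubated with peptide for 2 h at room temperature in 50 mM HEPES, 5 mM MgCl₂, 1 mM CaCl₂, pH 7.4, with 0.2% ovalbumin. Bound radioligand was separated on PEI-soaked GF/C filters and counted by scintillation, and IC₅₀ came from nonlinear sigmoidal regression.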
Consider B1, for which the affinity, expressed as Ki, was 1.71 nM. The same measure for B2: 2.05 nM; for B3: 2.55 nM. Turning to B4, the Ki (usually the equilibrium dissociation constant of an inhibitor or competing ligand from its target) is 1 nM. Under B5 stands 3.89 nM; under B6, 3.05 nM.
